The target in one data set is T1, FPS1S (Arabidopsis thaliana, UniProt Q09152).
T1 construct: gene FPS1; short isoform, 343 residues, lacking the 41-residue N-terminal extension of FPS1L; cDNA pcNC3; GST fusion in E. coli BL21(DE3), GST removed with Factor Xa leaving no extra residues; homodimer
T1 sequence (Q09152 1-343 isoform Q09152-2): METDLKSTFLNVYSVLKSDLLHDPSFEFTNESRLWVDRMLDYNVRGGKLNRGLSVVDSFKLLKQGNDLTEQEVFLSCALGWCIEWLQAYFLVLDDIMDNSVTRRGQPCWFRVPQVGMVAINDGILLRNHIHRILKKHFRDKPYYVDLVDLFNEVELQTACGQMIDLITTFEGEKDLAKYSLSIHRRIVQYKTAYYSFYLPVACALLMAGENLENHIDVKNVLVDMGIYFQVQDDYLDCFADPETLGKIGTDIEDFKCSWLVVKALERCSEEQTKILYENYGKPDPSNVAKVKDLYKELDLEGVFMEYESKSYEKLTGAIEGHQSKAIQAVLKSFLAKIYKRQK
Briefly: radiometric [[…]-14C]IPP incorporation, acid hydrolysis and hexane extraction. The conditions noted are these: product inhibition; FPP 0 to 1 mM; PIPES pH 7.0, 37°C. The class given is biochemical.

The next data set addresses T2, FPS2 (Arabidopsis thaliana, UniProt Q43315).
T2 construct: full length, 342 residues; cDNA pcNC2; GST fusion in E. coli BL21(DE3), GST removed with Factor Xa leaving no extra residues; homodimer
T2 sequence (Q43315 1-342): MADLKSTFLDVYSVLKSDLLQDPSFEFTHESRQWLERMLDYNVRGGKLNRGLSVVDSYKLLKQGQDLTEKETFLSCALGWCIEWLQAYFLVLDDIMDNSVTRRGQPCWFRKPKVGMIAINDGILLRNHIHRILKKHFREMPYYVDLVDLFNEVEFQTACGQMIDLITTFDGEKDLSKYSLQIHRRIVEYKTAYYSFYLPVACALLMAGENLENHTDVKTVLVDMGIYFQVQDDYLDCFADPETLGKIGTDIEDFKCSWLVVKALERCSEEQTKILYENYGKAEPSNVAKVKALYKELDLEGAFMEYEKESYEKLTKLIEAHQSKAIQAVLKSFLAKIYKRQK
The data set is described as above. The class given is biochemical. The conditions noted are these: product inhibition; FPP 0 to 1 mM; PIPES pH 7.0, 37°C.

Substrate in data set [1]: CC(C)=CCOP(=O)(O)OP(=O)(O)O
Briefly: purified protein. Type of data set: biochemical, Arabidopsis thaliana. Conditions: 100 µM IPP, 4 mM MgCl2, PIPES pH 7.0, 37°C, apparent Km, kcat per dimer.

Substrate in data set [2]: CC(C)=CCC/C(C)=C/COP(=O)(O)OP(=O)(O)O
Kind of data set: purified protein. Type of data set: biochemical, Arabidopsis thaliana. The conditions noted are these: 100 µM IPP, 4 mM MgCl2, PIPES pH 7.0, 37°C, apparent Km, kcat per dimer.

Substrate in data set [3]: C=C(C)CCO[P@@](=O)(O)OP(=O)(O)O
Briefly: purified protein. Conditions: 200 µM DMAPP, 4 mM MgCl2, PIPES pH 7.0, 37°C, labelled compound, apparent Km, kcat per dimer.

`CC(C)=CCC/C(C)=C/CC/C(C)=C/COP(=O)(O)OP(=O)(O)O` [FPP]: the “% reduction of activity at 1 mM” value on FPS1S and on FPS2 was ~ 30% throughout.

B1: FPS2 (Arabidopsis thaliana) (protein)
chain: T2 sequence (Q43315 1-342)
notes: full length, 342 residues; cDNA pcNC2; GST fusion in E. coli BL21(DE3), GST removed with Factor Xa leaving no extra residues; homodimer
For orientation: Km means the concentration of substrate that gives half-maximal velocity. The term kcat denotes the maximal rate divided by the concentration of active sites. By kcat/Km is commonly meant the turnover number divided by the Michaelis constant. For B1, in “purified protein [1]”, the Km turned out to be 31.5 ± 0.5 µM, the kcat was determined as 3.29 s⁻¹ and the specificity constant (kcat/Km) is 103000 M⁻¹ s⁻¹. Further, in “purified protein [2]”, the Km came to 11.3 ± 1.0 µM, the kcat worked out at 2.21 s⁻¹ and the catalytic efficiency (kcat/Km) is 195000 M⁻¹ s⁻¹. In the data set “purified protein [3]”, the Km was found to be 31.3 ± 0.5 µM, the kcat was 4.48 s⁻¹ and the kcat/Km turned out to be 143000 M⁻¹ s⁻¹.

B2: FPS1S (Arabidopsis thaliana) (protein)
chain: T1 sequence (Q09152 1-343 isoform Q09152-2)
notes: short isoform, 343 residues, lacking the 41-residue N-terminal extension of FPS1L; cDNA pcNC3; GST fusion in E. coli BL21(DE3), GST removed with Factor Xa leaving no extra residues; homodimer
For the molecule B2, in the data set “purified protein [1]”, the Michaelis constant (Km) is 22.7 ± 2.1 µM, the kcat stood at 0.87 s⁻¹ and the kcat/Km came out at 38300 M⁻¹ s⁻¹. In addition, in the data set “purified protein [2]”, the Km was 8.3 ± 1.2 µM, the kcat was found to be 0.607 s⁻¹ and the kcat/Km came to 73300 M⁻¹ s⁻¹. In addition, in the data set “purified protein [3]”, the Km worked out at 23.1 ± 0.4 µM, the kcat came to 1.04 s⁻¹ and the kcat/Km is 45000 M⁻¹ s⁻¹.

Values taken from publication PMC3492304, “Characterization of Arabidopsis FPS Isozymes and FPS Gene Expression Analysis Provide Insight into the Biosynthesis of Isoprenoid Precursors in Seeds” (PLoS ONE, 2012).
